Test results: patent US20050054043A1 (UNIVERSITY OF VERMONT, published 2005)

Legend:
[1] = biological target: T1, transferrin receptor on HeLa S3 cells (human, UniProt P02786 1-760); test: competition of unlabeled transferrin against radioiodinated Boehringer Mannheim hTf on HeLa S3 cells, LIGAND fit (apparent Kd')
T1 construct: whole, on cells; also called human receptors; cell-surface transferrin receptors
Method: Cells were routinely grown in DMEM-F-12 containing 10% newborn calf serum. Prior to beginning a binding experiment, the cells were harvested with Versene, and taken up in Joklik's minimum essential medium-20 mM Hepes-2% BSA (JMEM-BSA). Endogenous bovine transferrin was removed from the HeLa cells by incubation for 10 min at 37° C. at a 5-fold dilution with JMEM-BSA. After centrifugation of the cells and removal of the supernatant, this procedure was repeated twice. […] After 30 min of incubation at 37° C. with gentle shaking, portions of the cell suspension (3×100 μL) were pipetted into microfuge tubes containing 0.9 mL of ice-cold JMEM-BSA over 300 μL of dibutyl phthalate and centrifuged for 2 min in a Beckman microfuge. The aqueous and organic phases were aspirated to just above the cell pellet. The bottom of the tube containing the cell pellet was released by a hot wire into a plastic tube (12×75 mm) and assayed for radioactivity.

[2] = biological target: T1, transferrin receptor on HeLa S3 cells; test: direct equilibrium binding of radioiodinated diferric transferrin to HeLa S3 cells, LIGAND fit (apparent Kd')
Method: After 30 min of incubation at 37° C. with gentle shaking, portions of the cell suspension (3×100 μL) were pipetted into microfuge tubes containing 0.9 mL of ice-cold JMEM-BSA over 300 μL of dibutyl phthalate and centrifuged for 2 min in a Beckman microfuge. The aqueous and organic phases were aspirated to just above the cell pellet. The bottom of the tube containing the cell pellet was released by a hot wire into a plastic tube (12×75 mm) and assayed for radioactivity.

T1 sequence (P02786 whole entry): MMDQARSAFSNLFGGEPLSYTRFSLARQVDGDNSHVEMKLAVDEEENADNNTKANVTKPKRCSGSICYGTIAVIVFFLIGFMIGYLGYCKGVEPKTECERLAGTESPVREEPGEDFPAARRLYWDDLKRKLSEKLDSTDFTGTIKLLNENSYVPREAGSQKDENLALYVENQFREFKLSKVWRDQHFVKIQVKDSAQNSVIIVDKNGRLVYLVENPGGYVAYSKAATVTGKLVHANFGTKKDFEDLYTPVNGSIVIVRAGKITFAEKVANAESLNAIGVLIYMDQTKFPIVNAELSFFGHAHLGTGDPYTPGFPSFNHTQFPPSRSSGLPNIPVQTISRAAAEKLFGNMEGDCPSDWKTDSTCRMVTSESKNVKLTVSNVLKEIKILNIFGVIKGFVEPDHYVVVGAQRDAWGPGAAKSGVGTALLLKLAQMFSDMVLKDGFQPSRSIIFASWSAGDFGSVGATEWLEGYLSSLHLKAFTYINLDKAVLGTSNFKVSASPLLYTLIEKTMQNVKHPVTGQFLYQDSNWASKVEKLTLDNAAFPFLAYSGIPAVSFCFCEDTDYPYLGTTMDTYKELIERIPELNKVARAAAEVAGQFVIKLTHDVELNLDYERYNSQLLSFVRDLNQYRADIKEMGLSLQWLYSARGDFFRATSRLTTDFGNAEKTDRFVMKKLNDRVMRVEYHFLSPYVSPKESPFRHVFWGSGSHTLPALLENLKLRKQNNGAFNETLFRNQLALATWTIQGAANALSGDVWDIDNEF

B1: hTf N413D/N611D mutant (recombinant nonglycosylated human serum transferrin), diferric (ligand)
chain: VPDKTVRWCAVSEHEATKCQSFRDHMKSVIPSDGPSVACVKKASYLDCIRAIAANEADAVTLDAGLVYDAYLAPNNLKPVVAEFYGSKEDPQTFYYAVAVVKKDSGFQMNQLRGKKSCHTGLGRSAGWNIPIGLLYCDLPEPRKPLEKAVANFFSGSCAPCADGTDFPQLCQLCPGCGCSTLNQYFGYSGAFKCLKDGAGDVAFVKHSTIFENLANKADRDQYELLCLDNTRKPVDEYKDCHLAQVPSHTVVARSMGGKEDLIWELLNQAQEHFGKDKSKEFQLFSSPHGKDLLFKDSAHGFLKVPPRMDAKMYLGYEYVTAIRNLREGTCPEAPTDECKPVKWCALSHHERLKCDEWSVNSVGKIECVSAETTEDCIAKIMNGEADAMSLDGGFVYIAGKCGLVPVLAENYDKSDNCEDTPEAGYFAVAVVKKSASDLTWDNLKGKKSCHTAVGRTAGWNIPMGLLYNKINHCRFDEFFSEGCAPGSKKDSSLCKLCMGSGLNLCEPNNKEGYYGYTGAFRCLVEKGDVAFVKHQTVPQNTGGKNPDPWAKNLNEKDYELLCLDGTRKPVEEYANCHLARAPNHAVVTRKDKEACVHKILRQQQHLFGSDVTDCSGNFCLFRSETKDLLFRDDTVCLAKLHDRNTYEKYLGEEYVKAVGNLRKCSTSSLLEACTFRRP
modifications: non-glycosylated; diferric (iron-saturated); radioiodinated in Table 2 (A), unlabeled in (B)
notes: Full-length human transferrin with both N-glycosylation sites changed to Asp, expressed in BHK cells; Positions use mature-protein numbering; also called hTf(N/D)
[1]
  Kd: 19.8 nM
[2]
  Kd: 23.4 nM
